Test results published in US10100120B2, “Antibody which specifically binds to human CRTH2” (KYOWA HAKKO KIRIN CO., LTD, priority 2015, dated 2018).

T1: human CRTH2 (Homo sapiens, UniProt Q9Y5Y4)
T1 construct: expressed in transfected cells
T1 sequence (Q9Y5Y4 1-395): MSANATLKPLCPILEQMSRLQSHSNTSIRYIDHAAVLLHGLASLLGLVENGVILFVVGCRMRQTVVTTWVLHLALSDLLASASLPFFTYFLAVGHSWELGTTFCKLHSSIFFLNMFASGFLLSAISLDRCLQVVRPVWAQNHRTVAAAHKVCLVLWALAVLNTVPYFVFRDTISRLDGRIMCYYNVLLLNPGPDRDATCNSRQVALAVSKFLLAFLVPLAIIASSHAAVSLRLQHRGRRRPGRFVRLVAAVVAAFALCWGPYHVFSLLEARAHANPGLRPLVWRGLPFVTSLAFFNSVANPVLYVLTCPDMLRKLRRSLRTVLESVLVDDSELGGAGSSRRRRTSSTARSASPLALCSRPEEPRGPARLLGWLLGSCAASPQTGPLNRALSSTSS

B1: LV0HV1: humanized Lym2 antibody, VL LV0 (SEQ ID NO: 33), VH HV1 (SEQ ID NO: 51) (antibody, V domains shown)
VH: EVQLVESGGGVVQPGRSLRLSCAASGFTFSNYYMAWVRQAPGKGLEWVATISYDGSSTYYRDSVKGRFTISRDNAKNSLYLQMNSLRAEDTATYYCARHRGYYYSGAGYFDYWGQGTMVTVSS
VL: DIVMTQTPLSLPVTPGESASISCRSSQSLEYSDGYTYLEWYLQKPGQSPQVLIYGVSNRFSGVPDRFSGSGSGTDFTLKISRVEAEDVGVYYCFQATHDPLTFGQGTKLEIK
B2: Lym2 antibody: rat anti-human CRTH2 monoclonal antibody from hybridoma Lym2, rat IgG2b; VH SEQ ID NO: 17, VL SEQ ID NO: 19 (antibody, listed as Rattus norvegicus, V domains shown)
VH: EVQLVESGGGLVQPGRSMKLSCAASGFTFSNYYMAWVRQAPKKGLEWVATISYDGSSTYYRDSVKGRFTISRDNAKSTLYLQMDSLRSEDTATYYCARHRGYYYSGAGYFDYWGQGVMVTVSS
VL: DVVLTQTPVSLSVTLGDQASISCRSSQSLEYSDGYTYLEWYLQKPGQSPQVLIYGVSNRFSGVPDRFIGSGSGTDFTLKISRVEPEDLGVYYCFQATHDPLTFGSGTKLEIK

What was measured:
human CRTH2 = molecular target: T1, human CRTH2; assay: Binding activity against Azami-Green fusion human CRTH2-expressing CHO/DG44 cells; settings: 2-30000 ng/mL, compared with monkey CRTH2; FIG. 21
Description: The Azami-Green fusion human CRTH2-expressing CHO/DG44 cells and the cynomolgus monkey CRTH2-expressing CHO/DG44 cells established in Example 24 were peeled using 0.02% EDTA solution (NACALAI TESQUE, Inc.), washed with PBS, and suspended with SM. Next, the cells were seeded in a 96-well plate such that each well had 2×10^5 cells, and humanized Lym2 antibody LV0HV1 or the anti-DNP IgG1 antibody at each of final concentrations 30000, 7500, 1875, 469, 117, 29, 7, and 2 ng/mL were added thereto to cause a reaction at 4° C. for 40 minutes.
After the cells were washed three times with SM, goat anti-Human IgG alexa 647 (Molecular Probes) diluted to a concentration of 10 μg/mL with SM was added thereto at 100 μL/well to perform a reaction at 4° C. for 40 minutes. The cells were washed with SM and resuspended with 100 μL of SM, and the fluorescent intensity was measured by flow cytometry (BD Biosciences, FACS CantoII).
The data was analyzed by FLowJo 7.65 (Tomy Digital Biology Co., Ltd.).

[1] = test system: differentiation-induced human mast cells; assay: Reactivity against differentiation-induced human mast cells; assay type: binding; settings: mast cells stimulated by IgE and crosslinking antibody; antibody 10 μg/mL; FIG. 14
Description: Mast cells were prepared according to the method described in Nature Protocols 2006, 1(4), 2178 to 2183. The mast cells after 11 weeks from the start of differentiation induction were washed with SM and seeded in a 96-well plate such that each well had 5×10^4 cells, and PE anti-human CD203c (E-NPP3) Antibody (Biolegend Inc.), Brilliant Violet 421 (trademark) anti-human CD117 (c-kit) Antibody (Biolegend Inc.), and Anti-Human Fc epsilon Receptor I alpha (FcεR1) PE (eBioscience) were added thereto to cause a reaction at 4° C. for 1 hour. After the cells were washed again, the cells were suspended with SM, and the fluorescent intensity was analyzed by flow cytometry (BD Biosciences, FACS CantoII). […]
After the cells were washed, streptavidin, Alexa Fluor 647 conjugate (Molecular Probes) diluted with SM was added to wells to which biotin-labeled LV0HV1, hu19A2 v52, ch8B1 v1, ch3C12, or ch31A5 was added, goat anti-Rat IgG Alexa 647 (Molecular Probes) diluted with SM was added to wells to which BM16 was added, and goat anti-Mouse IgG Alexa 647 (Molecular Probes) diluted with SM was added to wells to which 301108 was added at a final concentration of 10 μg/mL to cause a reaction at 4° C. for 40 minutes. After the cells were washed again, the cells were suspended with SM, and the fluorescent intensity was analyzed by flow cytometry (BD Biosciences, FACS CantoII).

human eosinophils = assay: Agonist activity using shape change of human eosinophils as index (Example 20); assay type: cell-based; settings: 0 to 10 μg/mL, 1 hour; FIG. 17
Description: In the same experimental system as in Example 19 described above, rat anti-human CRTH2 antibody Lym2 at each final concentration of 0, 0.01, 0.1, 1, and 10 μg/mL was added and a reaction was performed for 1 hour and shape change of eosinophils was analyzed.

Molecule	binding activity against human CRTH2 (human CRTH2)	reactivity against mast cells [1]	shape change of eosinophils caused by antibody (agonist activity) (human eosinophils)
B1	substantially the same as each other	did not exhibit reactivity	
B2			doesn't cause the shape change
